Data from patent US20230322958A1 (Genentech, published 2023).
Like-named read-outs stand apart in the source and are kept apart here.

T1: huNotch2-EGF7-9 (human)
T1 chain: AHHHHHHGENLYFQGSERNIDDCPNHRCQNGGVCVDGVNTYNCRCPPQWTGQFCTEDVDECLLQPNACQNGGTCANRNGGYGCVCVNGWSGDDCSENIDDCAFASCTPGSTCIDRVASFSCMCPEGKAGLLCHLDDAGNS

T2: gpNotch2-EGF6-12 (guinea pig)
T2 construct: also called guinea pig Notch2 EGF6-12
T2 chain: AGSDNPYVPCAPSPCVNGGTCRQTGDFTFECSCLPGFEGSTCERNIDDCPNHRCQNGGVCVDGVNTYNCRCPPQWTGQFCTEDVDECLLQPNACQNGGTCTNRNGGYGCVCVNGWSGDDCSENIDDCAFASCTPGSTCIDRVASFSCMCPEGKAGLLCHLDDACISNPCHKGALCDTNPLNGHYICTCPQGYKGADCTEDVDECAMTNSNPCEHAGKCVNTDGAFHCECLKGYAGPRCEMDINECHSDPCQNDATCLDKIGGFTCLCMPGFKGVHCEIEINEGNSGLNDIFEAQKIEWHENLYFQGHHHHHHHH

T3: muNotch2-EGF6-12.K268R (mouse)
T3 chain: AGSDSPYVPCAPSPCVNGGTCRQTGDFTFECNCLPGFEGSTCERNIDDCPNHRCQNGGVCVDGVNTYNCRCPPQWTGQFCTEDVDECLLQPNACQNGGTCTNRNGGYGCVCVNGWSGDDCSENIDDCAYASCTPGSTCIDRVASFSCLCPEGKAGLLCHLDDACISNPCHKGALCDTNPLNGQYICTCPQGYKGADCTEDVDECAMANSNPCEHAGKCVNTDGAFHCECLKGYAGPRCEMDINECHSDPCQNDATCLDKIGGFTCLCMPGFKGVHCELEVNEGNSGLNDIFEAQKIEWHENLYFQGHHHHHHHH

T4: huNotch2-EGF4-7 (human)
T4 chain: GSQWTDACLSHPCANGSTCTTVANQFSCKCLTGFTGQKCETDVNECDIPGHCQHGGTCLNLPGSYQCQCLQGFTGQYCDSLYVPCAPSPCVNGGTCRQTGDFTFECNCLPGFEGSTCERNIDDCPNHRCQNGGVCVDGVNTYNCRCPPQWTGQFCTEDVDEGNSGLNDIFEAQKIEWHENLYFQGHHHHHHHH

T5: huNotch2-EGF5-8 (human)
T5 chain: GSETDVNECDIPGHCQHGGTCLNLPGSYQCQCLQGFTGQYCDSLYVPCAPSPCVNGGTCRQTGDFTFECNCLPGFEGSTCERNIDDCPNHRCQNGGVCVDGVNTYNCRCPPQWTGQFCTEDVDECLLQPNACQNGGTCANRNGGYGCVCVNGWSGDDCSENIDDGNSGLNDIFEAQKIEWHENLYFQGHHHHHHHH

T6: huNotch2-EGF6-10 (human, UniProt Q04721 219-418)
T6 construct: also called human Notch2 EGF6-10
T6 sequence: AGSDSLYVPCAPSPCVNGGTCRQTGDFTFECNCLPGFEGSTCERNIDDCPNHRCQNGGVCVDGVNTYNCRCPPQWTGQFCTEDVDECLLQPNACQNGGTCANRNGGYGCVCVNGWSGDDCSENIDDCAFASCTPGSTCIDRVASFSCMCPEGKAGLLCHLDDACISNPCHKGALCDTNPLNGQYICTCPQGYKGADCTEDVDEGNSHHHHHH

T7: huNotch1 (human)
T7 construct: The entry named huNotch1 is a tagged EGF-repeat fragment; also called human Notch1
T7 chain: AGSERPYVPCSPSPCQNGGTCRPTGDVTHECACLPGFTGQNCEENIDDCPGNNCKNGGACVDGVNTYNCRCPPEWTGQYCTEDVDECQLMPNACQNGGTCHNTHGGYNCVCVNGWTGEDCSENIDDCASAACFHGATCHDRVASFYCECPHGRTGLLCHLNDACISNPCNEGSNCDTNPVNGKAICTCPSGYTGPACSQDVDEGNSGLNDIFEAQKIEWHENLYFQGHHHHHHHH

T8: huNotch3 (human)
T8 construct: The entry named huNotch3 is a tagged EGF-repeat fragment; also called human Notch3
T8 chain: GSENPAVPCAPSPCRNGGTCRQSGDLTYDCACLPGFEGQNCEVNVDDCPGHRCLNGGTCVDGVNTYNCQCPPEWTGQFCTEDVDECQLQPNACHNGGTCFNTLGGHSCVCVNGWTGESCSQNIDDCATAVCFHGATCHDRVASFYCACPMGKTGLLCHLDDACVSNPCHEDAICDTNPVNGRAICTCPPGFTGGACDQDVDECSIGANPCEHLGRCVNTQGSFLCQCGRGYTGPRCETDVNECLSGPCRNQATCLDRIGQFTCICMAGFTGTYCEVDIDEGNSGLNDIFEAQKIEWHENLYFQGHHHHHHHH


Columns and labels:
[1] = target: T9, human Notch2 on U-87 MG cells (human, UniProt Q04721 26-2471); test: cell-based or functional assay
huNotch2-EGF7-9 = target: T1, huNotch2-EGF7-9; test: SPR BIAcore, antibody captured on protein A, 37 C
Method: (§1) Binding of the anti-Notch2 antibodies to Notch2 from additional species and to constructs comprising different EGF repeat regions was evaluated by BIAcore™. For this experiment, the antibodies with human constant regions were captured on a protein A chip to achieve approximately 200 RU. Ten-fold serial dilutions of various antigens were injected in HIBS-P buffer with additional 3 mM CaCl₂ at 37° C. with a flow rate of 100 μL/min.

gpNotch2-EGF6-12 = target: T2, gpNotch2-EGF6-12; test: SPR BIAcore, antibody captured on protein A, 37 C
Method: as §1

muNotch2-EGF6-12.K268R = target: T3, muNotch2-EGF6-12.K268R; test: SPR BIAcore, antibody captured on protein A, 37 C
Method: as §1

huNotch2-EGF4-7 = target: T4, huNotch2-EGF4-7; test: SPR BIAcore, antibody captured on protein A, 37 C
Method: as §1

huNotch2-EGF5-8 = target: T5, huNotch2-EGF5-8; test: SPR BIAcore, antibody captured on protein A, 37 C
Method: as §1

huNotch2-EGF6-10 [2] = target: T6, huNotch2-EGF6-10; test: SPR BIAcore T200, antibody captured on protein A, 37 C
Method: (§2) The binding affinities of the antibodies was determined by BIAcore™ T200 machine. Rabbit antibodies were expressed as chimeric antibodies with rabbit variable domains and human constant domains. Rat antibodies were expressed as chimeric antibodies with rat variable domains and human constant regions. Humanized antibodies were expressed in the human IgG1 backbone. For kinetics measurements, antibodies were captured on research grade protein A chip (GE Healthcare) to achieve approximately 300 RU. Ten-fold serial dilutions of huNotch2-EGF6-10 were injected in HBS-P buffer with additional 3 mM CaCl₂ at 37° C. with a flow rate of 100 μL/min. Association rates (ka) and dissociation rates (kd) were calculated using a 1:1 Langmuir binding model (BIAcore™ T200 Evaluation Software version 2.0). The equilibrium dissociation constant (KD) was calculated as the ratio kd/ka.

huNotch2-EGF6-10 [3] = target: T6, huNotch2-EGF6-10; test: SPR BIAcore, separate experiment, substantially as for Table 4
Method: as §2
In a separate experiment, the binding affinities of the humanized versions of the rat 3107 antibody were determined, substantially as described above.

[4] = target: T9, human Notch2 on U-87 MG cells; test: cell-based or functional assay; remark: listed apart in the source
huNotch1 = target: T7, huNotch1; test: SPR
huNotch3 = target: T8, huNotch3; test: SPR

T9 sequence (Q04721 26-2471): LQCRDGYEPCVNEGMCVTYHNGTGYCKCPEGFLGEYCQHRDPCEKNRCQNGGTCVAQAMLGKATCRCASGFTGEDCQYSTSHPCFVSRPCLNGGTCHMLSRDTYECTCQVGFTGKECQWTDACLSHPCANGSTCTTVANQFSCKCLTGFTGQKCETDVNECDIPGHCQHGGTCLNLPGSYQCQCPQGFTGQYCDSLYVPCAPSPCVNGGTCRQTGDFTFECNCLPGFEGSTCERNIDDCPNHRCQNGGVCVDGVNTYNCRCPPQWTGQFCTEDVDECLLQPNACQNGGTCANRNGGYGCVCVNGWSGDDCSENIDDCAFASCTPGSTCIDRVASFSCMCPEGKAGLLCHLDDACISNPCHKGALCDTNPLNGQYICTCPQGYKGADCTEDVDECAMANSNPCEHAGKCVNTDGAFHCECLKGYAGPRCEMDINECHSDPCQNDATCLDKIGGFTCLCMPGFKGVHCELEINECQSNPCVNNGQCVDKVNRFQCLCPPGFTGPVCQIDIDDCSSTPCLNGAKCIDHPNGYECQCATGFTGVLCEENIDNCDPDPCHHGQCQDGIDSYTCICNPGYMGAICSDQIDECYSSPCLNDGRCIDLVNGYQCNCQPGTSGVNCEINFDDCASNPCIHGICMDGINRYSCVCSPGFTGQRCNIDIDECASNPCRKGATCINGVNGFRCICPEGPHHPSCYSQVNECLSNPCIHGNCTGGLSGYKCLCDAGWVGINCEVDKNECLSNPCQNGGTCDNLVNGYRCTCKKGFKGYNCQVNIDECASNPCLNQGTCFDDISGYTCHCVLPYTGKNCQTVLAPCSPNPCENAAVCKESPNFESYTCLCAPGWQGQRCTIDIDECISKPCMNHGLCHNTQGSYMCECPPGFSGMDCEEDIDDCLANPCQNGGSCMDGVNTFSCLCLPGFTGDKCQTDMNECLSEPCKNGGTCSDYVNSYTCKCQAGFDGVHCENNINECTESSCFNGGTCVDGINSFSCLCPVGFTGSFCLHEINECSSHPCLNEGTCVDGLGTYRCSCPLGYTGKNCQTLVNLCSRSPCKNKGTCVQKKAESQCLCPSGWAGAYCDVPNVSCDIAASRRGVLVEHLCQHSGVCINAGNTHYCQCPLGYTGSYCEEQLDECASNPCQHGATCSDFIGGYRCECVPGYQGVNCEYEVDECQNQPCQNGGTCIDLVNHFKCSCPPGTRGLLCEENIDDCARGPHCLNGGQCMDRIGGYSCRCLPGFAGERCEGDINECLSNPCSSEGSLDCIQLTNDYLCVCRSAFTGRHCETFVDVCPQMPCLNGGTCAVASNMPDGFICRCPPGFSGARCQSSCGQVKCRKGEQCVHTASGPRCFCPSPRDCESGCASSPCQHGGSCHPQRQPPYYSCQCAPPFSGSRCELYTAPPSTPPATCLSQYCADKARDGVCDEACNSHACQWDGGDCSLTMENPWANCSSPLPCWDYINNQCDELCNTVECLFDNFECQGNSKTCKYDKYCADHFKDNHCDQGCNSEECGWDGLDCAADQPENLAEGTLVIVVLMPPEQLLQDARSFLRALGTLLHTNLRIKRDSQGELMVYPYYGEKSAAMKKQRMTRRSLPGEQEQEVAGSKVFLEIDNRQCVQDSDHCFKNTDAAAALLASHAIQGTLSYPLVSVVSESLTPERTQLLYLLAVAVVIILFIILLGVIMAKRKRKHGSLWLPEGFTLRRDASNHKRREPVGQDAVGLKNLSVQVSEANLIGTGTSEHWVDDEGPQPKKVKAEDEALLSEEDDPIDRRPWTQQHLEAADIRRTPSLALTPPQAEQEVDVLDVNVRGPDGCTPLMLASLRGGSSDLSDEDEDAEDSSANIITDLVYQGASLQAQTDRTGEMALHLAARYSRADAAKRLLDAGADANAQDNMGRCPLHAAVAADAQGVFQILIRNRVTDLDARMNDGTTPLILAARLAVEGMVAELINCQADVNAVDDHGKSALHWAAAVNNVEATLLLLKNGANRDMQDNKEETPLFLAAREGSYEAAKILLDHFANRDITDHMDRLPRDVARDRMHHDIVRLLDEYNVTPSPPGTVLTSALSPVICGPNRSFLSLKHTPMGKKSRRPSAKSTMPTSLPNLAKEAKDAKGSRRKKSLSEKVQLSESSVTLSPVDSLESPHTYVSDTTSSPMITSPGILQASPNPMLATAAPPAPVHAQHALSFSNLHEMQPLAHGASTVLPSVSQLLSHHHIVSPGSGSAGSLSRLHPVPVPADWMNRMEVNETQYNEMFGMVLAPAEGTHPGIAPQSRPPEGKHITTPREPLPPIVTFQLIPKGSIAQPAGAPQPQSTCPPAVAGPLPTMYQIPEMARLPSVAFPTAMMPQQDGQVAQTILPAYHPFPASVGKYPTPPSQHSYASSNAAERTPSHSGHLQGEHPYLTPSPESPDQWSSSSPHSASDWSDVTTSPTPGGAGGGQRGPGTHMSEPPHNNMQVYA

| Binder | Jagged1 IC50 [1] | binding result (huNotch2-EGF7-9) | binding result (gpNotch2-EGF6-12) | binding result (muNotch2-EGF6-12.K268R) | binding result (huNotch2-EGF4-7) | binding result (huNotch2-EGF5-8) | Kd (huNotch2-EGF6-10 [2]) | koff (huNotch2-EGF6-10 [2]) | kon (huNotch2-EGF6-10 [2]) | Kd (huNotch2-EGF6-10 [3]) | koff (huNotch2-EGF6-10 [3]) | kon (huNotch2-EGF6-10 [3]) | Jagged1 IC50 [4] | binding result (huNotch1) | binding result (huNotch3) |
| --- | --- | --- | --- | --- | --- | --- | --- | --- | --- | --- | --- | --- | --- | --- | --- |
| rat.3107 (rat/human chimeric anti-Notch2 antibody 3107) (antibody, V domains shown) VH: QVQLQQSGAELAKSGSSVKISCKASGYTFSNYVIHWIKQTTGQAPEWTGYIIPGSGGTKFNEKFKGKATLTVDKSSTTAYMQLSSLTPVDTAVYYCARDGAGSFTYWGQGTLVTVSS VL: DVLMTQTPVSLPVSLGGQVSISCRSSQSLVHSDGNTYLHWFLQKPGQSPQLLIYRISNRFSGVPDRFSGSGSGTDFTLKISRVEPEDLGVYYCLQSTHFPDTFGGGTKVEIK | 2.1 nM | binds | binds | binds | binds | binds | 5 nM | 0.00182 s⁻¹ | 363000 M⁻¹ s⁻¹ | 9.12 nM | 0.00312 s⁻¹ | 342000 M⁻¹ s⁻¹ | 4.88 nM | – | – |
| hu1B2.v101 (antibody, V domains shown, Human IgG1 backbone) VH: EVQLVESGGGLVQPGGSLKLSCAVSGFTFSDFYMEWVRQASGKGLEWVAAQRNKANDFSIVYSASVKDRFTISRDDSKSTLYLQMNSLKTEDTAVYYCSRDGGRWGLDAWGQGTLVTVSS VL: DIQMTQSPSSVSASVGDRVTITCQTSEDIYSGLAWYQQKPGKSPKLLIYGASRLQDGVPSRFSGSGSGTDYTLTISSLQPEDFATYYCQQGFKYPLTFGGGTKVEIK | 3.02 nM | – | – | – | – | – | 2.84 nM | 0.000813 s⁻¹ | 286000 M⁻¹ s⁻¹ | – | – | – | – | no binding | no binding |
| hu1B2.v103 (antibody, V domains shown, Human IgG1 backbone) VH: EVQLVESGGGLVQPGGSLKLSCAVSGFTFSDFYMEWVRQASGKGLEWVAAQRNKANDFSIVYSASVKDRFTISRDDSKSTLYLQMNSLKTEDTAVYYCSRDGGKWGLDAWGQGTLVTVSS VL: DIQMTQSPSSVSASVGDRVTITCQTSEDIYSGLAWYQQKPGKSPKLLIYGASRLQDGVPSRFSGSGSGTDYTLTISSLQPEDFATYYCQQGFKYPLTFGGGTKVEIK | 1.8 nM | – | – | – | – | – | 3.08 nM | 0.000817 s⁻¹ | 265000 M⁻¹ s⁻¹ | – | – | – | – | no binding | no binding |
